Source: the nanobody polyreactivity screen of Harvey et al. (2022)

Experiment: yeast display, Sf9 membrane polyspecificity reagent, FACS + sequencing; frameworks hold sequencing errors
Outline: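 A synthetic nanobody library was expressed on Saccharomyces cerevisiae BJ5465 by galactose induction for 36–48 hours. The library was stained for 1 hour at 4 °C with 10% biotinylated, detergent-solubilized Sf9 membrane reagent and enriched with streptavidin microbeads before FACS. Low and high (top ~1%) gates were set on anti-HA fluorescence for expression and streptavidin fluorescence for reagent binding, and each polyreactivity label reflects the gate of origin.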

Row | Sequence | polyreactivity (PSR sort gate)
1 | QVQLVESGGGLVQAGGSLRLSCAASGSTFPAYAMGWYRQAPGKERELVAVINLSGSTYYADSVKGRFTISRDNAKNTVYLQMNSLKPEDTAVYYCNARPYDYYRYGYWGQGTQVTVSS | low polyreactivity
2 | QVQLVESGGGLVQAGGSLRLSCAASGSTFDKKAMGWYRQAPGKERELVAAITWRGGRTYYADSVKGRFTISRDNAKNTVYLQLNSLKPEDTAVYYCNKVSWEQMDYWGQGTQVTVSS | low polyreactivity
3 | QVQLVESGGGLVQAGGSLRLSCAASGFIFSSYAMGWYRQATGKERELVATISWSGGSTYYADSVKGRFTISRDNAKNTVYLQMNSLKPEDTAVYYCAAGYQRYLQRPEFYYWGQGTQVTVSS | high polyreactivity
4 | QVQLVESGGGLVQAGGSLRLSCAASGRIFGYNAMGWYRQAPGKERELVAVITYSGGSTYYADSVKGRFTISRDNAKNTVYLQMNSMIPEDTAVYYCAADYQPYSYFWQGGTRDMDYWGQGTQVTVSS | low polyreactivity
5 | QVQLVESGGGLVQAGGSLRLSCAASGSIFVVNAMGWYRQAPGKERELGASISQSGDNTYYADSVKGRFTISRDNAKNTVYLQMISLKTEDTAVYYCNAYGGYPEVDYWGQGTQVTVSS | low polyreactivity
6 | QVQLVESGGGLVQAGGSLRLSCAASGRTFSYYTMGWYRQAPGKERELVARISNRGTNTYYADSVKGRFTISRDNAKNTVYLQMNSLKPEDTAVYYCNTEDFFNVPEMDSWGQGTQVTVSS | low polyreactivity
7 | QVKLVESGGGLVQAGGSLRLSCAASGLTYLYTMGWSRQAPGKERELVAAITRSGRTYYADSVKGRFTISRDNAKNTVYLQMNSLKPEDTAVYYCATRTGYQQPDGRYYYWGQGTQVTVSS | high polyreactivity
8 | QVQLVESGGGLVQAGGSLRLSCAASGRIFLRNAMGWYRQAPGKERELVAAISRRGATTYYADSVKGRFTISRDNAKNTVYLQMNSLKPEDTAVYYCAKRVWETDYDYWGQGTQVTVSS | high polyreactivity
9 | QVQLVESGGGLVQAGGSLRLSCAASGTFGYYTMGWYRQAPGHERELVAAITRSGGSTYDADSVKGRFTISRDNAKNTVYLQMNSLKPEDTAVYYCATELHAWSSWNRYRAYYYWGQGTQVTVSS | high polyreactivity
10 | QVQLVESGGGLVQAGGSLRLSCAASGRIFYPYAMGWYRQAPGKERELVASITWRGGSTYYADSVKGRFTISRDNAKNTVYLQMNSLKPEDTAVYYCAAVPYSYTYVYLSHYDYWGQGTQVTVSS | low polyreactivity
11 | QVQLVESGGGLVQAGGSLRLSCAASGSTLSDNAMGWYRQAPGKERELVASISWSGGTYYADSVKGRFTISRDNAKNTVYLQMNSLKPEDTAVYYCAAYIYYNYSRQYWYDYWGQGTQVTVSS | low polyreactivity
12 | QVQLVESGGGLVQAGGSLRLSCAASGSTFSTNAMGWYRQAPGKERELVAAISRRGGNTYYADSVKGRFTISRDNAKNTVYLQMNSLKPEDTAGYYCAAKYYRFGDPDRYDYWGQGTQVTVSS | high polyreactivity
13 | QVQLVESGGGLVQAGGSLRLSCAASGRIFYANTMGWYRQAPGKEWELVAAITSGGSTNYADSVKGRFTISRDNAKNTVYGQKNSLKPEDTAVYYCATKQRRGYWGYITAYARYYWGQGTQVTVSS | high polyreactivity
14 | QVQRVESGGGLVQAGGSLRLSCAASGSTFPPYGMGWSRQAPGKERELVAAITWRGGRTYYADSVKGRFTISRDNAKNTVYLQMNSLKPEDTAVYYCAASYGPRTGYATYRYASSRYNYWGQGTQVTVSS | high polyreactivity
15 | QVQLVESGGGLDQAGGSLRLSCAASGSIFYDNTMAWYRQAAGKERDLVADISSGDSTYYADSVKGRFTISRDNAKNTVYLQMNSLKPEDTAVYYCNADVYSWVSVKEGDYWGQGTEVTVSS | low polyreactivity
16 | QLQLVESGGGLVQAGGSLRLSCAASGSIFNIYAMGWYRQAPGKERELVATITGIADYTYYADSVMGRFTISRDNAKNTVYLQMNSLKPEDTAVYYCAADKYVSEYDYWGQGTQVTVSS | low polyreactivity
17 | QVQLVESGGGLVQAGGSLRLICAASGFIFGGYGMGWYRQAPGKERELVAVITASGGSTYYADSVKGRFTISRDNAKNTVYLQMNSLKPEDTAVYYCAARVGRYGYSQYYYWGQGTQVTVSS | high polyreactivity
18 | QVQLVESCGGLVQAGGSLRLSCAPSGSIFVCYAMGWYRQAPWKEREFVAAITSGRGTYYADSVKGRFTRSRDNAQITVYLQMNSLKPEDTEVYYCNTVWRTRSFRAPAVAYGYWGQGTQVTVSS | high polyreactivity
19 | QVQLVESGGGLVQAGGSLRLSCAASGGIFGANSMGWYRQAPGKERELVATITRGGSTNYADSVKGRFTISRDNAKNTVYLQMNSLKTEDTAVYYCAARFYSRAFWPAYYYWGQGTQVTVSS | high polyreactivity
20 | QVQLVESGGGLVQAGGSLRLSCAASGNTFSPYGMGWYRQAPGKERELVAGITISDDSTYYADSVKGRFTISRDNAKNTVYLQMNSLKPEDTAVYYCNARYLSWYFKYLYDYWGQGTQVTVSS | low polyreactivity
21 | QVQLVESGGGLVQAGGSLRLSCAASGSIFRDNAMGWYRQAPGKERELVAAINVRDGDTFYADSVKGRFTISRDNAKNTVYLQMNSLKPEDTAVYYCAVPGATSYFAYDSWGQGTQVTVSS | low polyreactivity
22 | QVQLVESGGGLVQAGGSLRLSCAASGRTFLRYTMGWYRQAPGKERELVAAITYSGGSTYYADSVKGRFTISRDNAKNTVYLQMNSLKPEDTAVYYCAASYLWGYTEYYYWGQGTQVTVSS | high polyreactivity

Row | Sequence | polyreactivity (PSR sort gate)
23 | QVQLVESGGGLVQAGGSLRLSCAASGRIIEYYAMGWYRQAPGKERELVAAISSGGSTYYADSVKGRFTISRDNAKNTVYLQMNSLKPEDTAVYYCNTRYVYTRGGPLKRDYWGQGTQVTVSS | high polyreactivity
24 | QVQLVESGGGLVQAGGSLRLSCAASGSIFDNYAMGWYRQAPGKEREFVAGISWSGGSTRYADSVKGRFTISRDNAKNTVYLQMNSLKPEDTAVYYCNTGYGLVDFLYGYYYWGQGTQVTVSS | low polyreactivity
25 | QVQLVESGGGLVQAGGRLRLSCAASGSTFWYYAMGWYRQAPGKEREFVAGISTSGVSTYYADSVKGRFTISRDNAKNTVYLQMNSLKPEDTAVYYCAADYIFRRAGWYLMDYWGQGTQVTVSS | high polyreactivity
26 | QVQLVESGGGLVQAGGSLRLSCAASGSIFSDNAMGWYRPAPGKESELVAAITYSGGRTSYADSVKGRFTISRDNAKNTVYLQMNSLKPEDTAVYYCNAEYYYWNREGDYWGQGTQVTVSS | low polyreactivity
27 | QVQLVESGGGLVQAGGSLRLSCADSGSIFQRYAVGWYRQAPGKEREVVAAFTASGGSTYYADSVKGRFTISRDNAKNTVYLQMNILKPEDTAVYYCATDSYWRQDLYRYEYWGQGTQVTVSS | high polyreactivity
28 | QVQLVESGGGLVQAGGSLRLSCAASGSIFQYNAMGWYRQAPGKEREFVADISYSGGTTDYADSVKGRFTISRDNAKNTVYLQMNRLKPEDTAVYYCNADLSSGYPYSYYSATEYDYWGQGSQVTVSS | low polyreactivity
29 | QVQLVESGGGLVQAGGSLRLSCAASGSTFRRNAMGWYRQAPGKERELVAAITWRGGSTSYADSVKGRFTISRDNAKNTVYLQMNSLKPEDTGVYYCAAVKGHSQVLSYGYWGQGTQVTVSS | low polyreactivity
30 | QVQLVESGGGLVQAGGSLRLSCAASGRTFVSYAMGWYRQAPGKERELVAAINGNGASTRYADSVKGRFTISRDNAKNTVYLQMNSLKPEDTAVYYCNTGRRFYGYNYWGQGTQVTVSS | high polyreactivity
31 | QVQLVESGGGLVQAVGSLSLSCAASGIIFTWYDMGWYRPAPGKERELVAAISYIGGGSTYYADSVKGRFTISRDNAKNTVYLQMNSLKPEDTAVYYCATDFYYAKYGYWGQGTQVTVSS | low polyreactivity
32 | QVQLVESVGGLVQAGGSLRLSCASSGFTFRFYVMGWSRQAPGKERELVAAITASGGTTYYADSVKGRFTISRDNAKNTVYLQMNSLKPEDTAVYYCNARYYYLYGYDYWGQGTQVTVSS | high polyreactivity
33 | QVQLVESGGGLLQAGGSLRLSCAASGRTFNYYAMGWYRQAPGKERELVAAISRSGGSTYYADSVKGRFTISRDNAKNTVFLQMNSLKPEDTAVYYCKSDRGSIYGWGQGTQVTVSS | high polyreactivity
34 | QVQLVESGGGLVQAGGSLRLSCAASGSTFYRYAMGWYRQAPGKERELVAAISTRSGSTYYADSVKGRFTISRDNAKNTVYLQMNSLKPEDTAVYYCAADGHKKTARKYYYWGQGTEVTVSS | low polyreactivity
35 | QVQLVESGGGLVQAGGSLRLSCAASGSTFPSYAMGWYRQAHGKERELVAAINSGGGTNYADSVKGRFTISRDNAKNTVYLQMHSLKPEDTAVYYCDKSRYDYTKTEGGYWGQATQVTVSS | low polyreactivity
36 | QVQLVESGGGLVQAGGSLRLSCAASGRIFGSYAMGWYRQAPGKERELVAAISWRGTSTYYADSVKGRFTISRDNAKNTVYLQMNSLIPEDTAVYYCAARGLWPYDYWGQGSQVTVSS | low polyreactivity
37 | QVQLVETGAGLVQAGGSLRLSSAASGFIFYPYAMGWYRQAPGKERELVAVINKSSDNTYYADSVKGRFTISRDNAKNTVYLQMNSLKPEDTAVYYCAAEYVFYSRFFTEEYWGQGTQVTVSS | low polyreactivity
38 | QVQLVQSGGGLVQAGGSLRLSCAASGSIFGYYAKGWNRQAPGKERQLVAAIDSRGGSTYYADSVKGRFTISRDNEKNTVYLQMNSLKTEDTAVYYCAARLRYPRRGQGDNYRGQGTQVTVSS | low polyreactivity
39 | QVHLVESGGGLVQAGGSLRLSCAASGFIFRYYAMGWYRQAPGKEREMVAAISWSGGSTYYADSVKGRFTISRDNAKNTVYLQMNSLKPEDTAVYYCAADRYAILFYAEDYWGQGTQVTVSS | low polyreactivity
40 | QVQLVESGGGLVQAGGSLRLSCAASGRIFARNAMGWYRQAPGKERELVADITSTGSTNYADSVKGRFTISRDNAMNTVYLQMNSLKPEDTAVYYCAADYYTGYVWEDYYWGQGTQVTVSS | low polyreactivity
41 | QVQLVESGGGLVQAGGSLRLSCAASGSIFYGYAMGWYRQAPGKERELVAAISGGGRTNYADSVKGRFTISRDNAKNTVYLQMNSLKPEDTAVYYCARRSQRGIYSMYYWGQGTQVTVSS | low polyreactivity
42 | QVQLVESGGALVQAGGSLRLSCAASGIIFRYNAMGWYRQAPGKDREVVAAISWSTGSTYYADSVKGRFTISRDNAKNTVYLQMNSLKPEDTAVYYCNAYWLRHIYNYWGQGSQVTVSS | high polyreactivity
43 | QVQLVESGGGLVQAGGSLRLSCAASGRTFVRYAMGWYRQAPGKERELVARITSRGTSTYYADSVKGRFTISRDNAKNTVYLQMNSLKPEDTAFYYCNKVRTFRDKSRYDYWGQGTQVTVSS | low polyreactivity
